± gives the standard deviation of the averaged measurements.
B1: library; a variant is named by its letters at N, in order (parent)
chain: GCUGUCACCGGUGCUUGGUACGUUAUAUUCAGCCGGUCUGAUGAGUCUNNNNNNAGACGAAACAGC

How the values were obtained:
[1] = variants of: B1; assay: FACS-Seq fitted mean relative fluorescence mCherry/BFP without ligand (log10 relative fluorescence); HEK293T overexpressing SLC46A1; higher = higher reporter protein expression; conditions: without (6R,S)-folinic acid; ligand present: no
Experimental: (§1)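 Hammerhead (sTRSV) ribozyme switch libraries with a ligand aptamer grafted on stem I and a randomized N4-6 loop II, cloned into the 3' UTR of mCherry and transiently transfected into HEK293T cells; RNA-Seq 72 h post transfection with ligand added 1 h before transfection; RNA read count / plasmid DNA read count normalized to the non-cleaving sTRSVctl (x100), log10; sequences with >100 DNA reads. FACS-Seq: lentiviral library sorted into 6 bins after 48 h ligand, log-normal fit mean of mCherry/BFP scaled to controls. Printed sequences are partial switch sequences.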

[2] = variants of: B1; assay: normalized RNA/DNA level without ligand (relative to sTRSVctl = 100) (log10 (% of sTRSVctl)); HEK293T overexpressing SLC46A1; higher = less ribozyme self-cleavage, higher mRNA level; conditions: without (6R,S)-folinic acid; ligand present: no
Experimental: as §1

[3] = variants of: B1; assay: FACS-Seq fitted mean relative fluorescence mCherry/BFP with ligand (log10 relative fluorescence); HEK293T overexpressing SLC46A1; ligand concentration (+) FACS-Seq: 6 mM; higher = higher reporter protein expression; conditions: with (6R,S)-folinic acid; ligand present: yes
Experimental: as §1

[4] = variants of: B1; assay: normalized RNA/DNA level with ligand (relative to sTRSVctl = 100) (log10 (% of sTRSVctl)); HEK293T overexpressing SLC46A1; ligand concentration (+) RNA-Seq: 6 mM; higher = less ribozyme self-cleavage, higher mRNA level; conditions: with (6R,S)-folinic acid; ligand present: yes
Experimental: as §1

Variant | FACS-Seq fitted mean (log10) [1] | normalized RNA/DNA level without ligand (log10) [2] | FACS-Seq fitted mean (log10) [3] | normalized RNA/DNA level with ligand (log10) [4]
GCUGUCACCGGUGCUUGGUACGUUAUAUUCAGCCGGUCUGAUGAGUCUAAGGCCAGACGAAACAGC | 0.18 ± 0.073 | 2.059 ± 0.012 | 0.288 ± 0.18 | 2.04 ± 0.081
GCUGUCACCGGUGCUUGGUACGUUAUAUUCAGCCGGUCUGAUGAGUCUCAGGCUAGACGAAACAGC | 0.511 ± 0.14 | 2.055 ± 0.0024 | 0.544 ± 0.066 | 2.01 ± 0.036
GCUGUCACCGGUGCUUGGUACGUUAUAUUCAGCCGGUCUGAUGAGUCUAAGGUAAGACGAAACAGC | 0.34 ± 0.014 | 1.74 ± 0.024 | 0.228 ± 0.14 | 1.83 ± 0.025
GCUGUCACCGGUGCUUGGUACGUUAUAUUCAGCCGGUCUGAUGAGUCUAAGGUCAGACGAAACAGC | 0.209 ± 0.03 | 2.03 ± 0.013 | 0.178 ± 0.099 | 2 ± 0.027
GCUGUCACCGGUGCUUGGUACGUUAUAUUCAGCCGGUCUGAUGAGUCUAAGGUGAGACGAAACAGC | 0.462 ± 0.049 | 1.827 ± 0.011 | 0.597 ± 0.51 | 1.98 ± 0.04
GCUGUCACCGGUGCUUGGUACGUUAUAUUCAGCCGGUCUGAUGAGUCUAAGGGUAGACGAAACAGC | -0.0258 ± 0.095 | 1.952 ± 0.0044 | -0.308 ± 0.14 | 2.02 ± 0.032
GCUGUCACCGGUGCUUGGUACGUUAUAUUCAGCCGGUCUGAUGAGUCUAAGGGAAGACGAAACAGC | 0.125 ± 0.041 | 1.949 ± 0.0036 | 0.0354 ± 0.14 | 2.03 ± 0.03
GCUGUCACCGGUGCUUGGUACGUUAUAUUCAGCCGGUCUGAUGAGUCUGAGGUUAGACGAAACAGC | -0.16 ± 0.053 | 1.991 ± 0.0089 | -0.382 ± 0.15 | 2 ± 0.027
GCUGUCACCGGUGCUUGGUACGUUAUAUUCAGCCGGUCUGAUGAGUCUGAGGUAAGACGAAACAGC | 0.345 ± 0.029 | 1.844 ± 0.015 | 0.341 ± 0.17 | 1.92 ± 0.033
GCUGUCACCGGUGCUUGGUACGUUAUAUUCAGCCGGUCUGAUGAGUCUGAGGUGAGACGAAACAGC | 0.324 ± 0.045 | 1.967 ± 0.0026 | 0.505 ± 0.25 | 2.04 ± 0.043
GCUGUCACCGGUGCUUGGUACGUUAUAUUCAGCCGGUCUGAUGAGUCUGAGGGUAGACGAAACAGC | 0.338 ± 0.027 | 2.001 ± 0.016 | 0.556 ± 0.037 | 2.04 ± 0.041
GCUGUCACCGGUGCUUGGUACGUUAUAUUCAGCCGGUCUGAUGAGUCUGAGGGAAGACGAAACAGC | 0.161 ± 0.042 | 1.969 ± 0.017 | 0.0592 ± 0.019 | 2.04 ± 0.028
GCUGUCACCGGUGCUUGGUACGUUAUAUUCAGCCGGUCUGAUGAGUCUUAGGAUAGACGAAACAGC | 0.37 ± 0.051 | 1.9235 ± 0.00039 | 0.358 ± 0.23 | 2 ± 0.052
GCUGUCACCGGUGCUUGGUACGUUAUAUUCAGCCGGUCUGAUGAGUCUUAGGUGAGACGAAACAGC | 0.228 ± 0.037 | 1.68 ± 0.017 | 0.559 ± 0.21 | 1.96 ± 0.033
GCUGUCACCGGUGCUUGGUACGUUAUAUUCAGCCGGUCUGAUGAGUCUUAGGUAAGACGAAACAGC | 0.246 ± 0.04 | 1.878 ± 0.0067 | 0.0784 ± 0.099 | 1.98 ± 0.031
GCUGUCACCGGUGCUUGGUACGUUAUAUUCAGCCGGUCUGAUGAGUCUUAGGGAAGACGAAACAGC | 0.295 ± 0.13 | 1.8512 ± 0.0012 | 0.501 ± 0.29 | 2 ± 0.03
GCUGUCACCGGUGCUUGGUACGUUAUAUUCAGCCGGUCUGAUGAGUCUUAGGGGAGACGAAACAGC | 0.0613 ± 0.073 | 1.648 ± 0.0041 | 0.172 ± 0.14 | 1.97 ± 0.04
GCUGUCACCGGUGCUUGGUACGUUAUAUUCAGCCGGUCUGAUGAGUCUUAGGGUAGACGAAACAGC | 0.607 ± 0.2 | 1.885 ± 0.015 | 0.604 ± 0.026 | 1.98 ± 0.049
GCUGUCACCGGUGCUUGGUACGUUAUAUUCAGCCGGUCUGAUGAGUCUGAGGCAAGACGAAACAGC | 0.286 ± 0.031 | 2.017 ± 0.0044 | 0.296 ± 0.25 | 2.05 ± 0.026
GCUGUCACCGGUGCUUGGUACGUUAUAUUCAGCCGGUCUGAUGAGUCUCAGGUGAGACGAAACAGC | 0.231 ± 0.12 | 1.96 ± 0.025 | 0.385 ± 0.089 | 1.992 ± 0.016
GCUGUCACCGGUGCUUGGUACGUUAUAUUCAGCCGGUCUGAUGAGUCUCAGGUAAGACGAAACAGC | 0.0884 ± 0.016 | 1.667 ± 0.0023 | 0.0948 ± 0.22 | 1.806 ± 0.013
